In US20240034813A1 (Janssen / Centocor, published 2024):

Key:
[1] = target: T1, recombinant human EGFR/ErbB1/HER1 with C-terminal His tag, Cy5-labeled (human, UniProt P00533 25-645, Cy5 label (reacted with Cy5 Mono NHS Ester; sites not stated)); assay: competitive TR-FRET (Eu-amivantamab/Cy5-EGFR), EC50 ratio vs Reference Material; Ex. 11 drug product, 3 months at 25 C
T1 construct: Commercial protein; also called Cy5-EGFR; Cy5-labeled EGFR antigen; not shown: C-terminal His tag
Description: (§1) In this procedure, varying concentrations of unlabeled bispecific EGFR-cMet antibody sample compete with donor fluorophore (Europium (Eu) chelate) labeled bispecific EGFR-cMet antibody for binding to an acceptor fluorophore (Cy5)-labeled EGFR antigen. Excitation of the donor fluorophore results in a transfer of energy to the bound acceptor fluorophore (FRET process). The resultant FRET is detected by emission of light at 665 nm using a microplate reader capable of measuring time-resolved fluorescence. Sample dose response curves are compared to the RM.
(§2) EGFR Binding Materials and Methods. Certified commercial EGFR, a recombinant human EGFR/ErbB1/HER1 with C-terminal His tag is reacted with certified commercial Cy5 Mono NHS Ester to produce Cy5-labeled EGFR. Validated bispecific EGFR-cMet antibody is reacted with certified commercial Europium (Eu) chelate to produce Eu-labeled bispecific EGFR-cMet antibody. […] Fluorescence is then measured by spectrophotometry at 665 nm, plotted against antibody concentration and analyzed by a four-parameter logistic model. The antibody concentration required to obtain half of the maximum fluorescence response (EC50) is determined for RM, assay control and samples. The potencies of assay control and samples are calculated based on the ratio of the sample (or control) and RM EC50 values and reported as a percentage activity relative to the RM.

[2] = target: T1, recombinant human EGFR/ErbB1/HER1 with …; assay: competitive TR-FRET (Eu-amivantamab/Cy5-EGFR), EC50 ratio vs Reference Material; Ex. 11 drug product, 6 months at 25 C
Description: as §1, §2

[3] = target: T2, recombinant cMet/HGFR with c-terminal His-tag, Cy5-labeled (UniProt P08581 25-932, limits assumed, Cy5 label (reacted with Cy5 Mono NHS Ester; sites not stated)); assay: competitive TR-FRET (Eu-amivantamab/Cy5-c-MET), EC50 ratio vs Reference Material; Ex. 3 acetate formulation with PS80, T0
T2 construct: Commercial protein; also called Cy5-c-MET; Cy5-labeled c-MET antigen; not shown: C-terminal His-tag
Description: as §1, with “(Cy5)-labeled c-MET” for “(Cy5)-labeled EGFR”, “the Reference Material (RM).” for “the RM.”
as §2, with “c-MET Binding” for “EGFR Binding”, “commercial cMet,” for “commercial EGFR,”, “recombinant cMet/HGFR” for “recombinant human EGFR/ErbB1/HER1”, “with c-terminal His-tag” for “with C-terminal His tag”, “Cy5-labeled c-MET.” for “Cy5-labeled EGFR.”, “produce Eu labeled” for “produce Eu-labeled”

[4] = target: T1, recombinant human EGFR/ErbB1/HER1 with …; assay: competitive TR-FRET (Eu-amivantamab/Cy5-EGFR), EC50 ratio vs Reference Material; Ex. 2 Formulation 3 (acetate), 3 months at 5 C
Description: as §1, §2

[5] = target: T2, recombinant cMet/HGFR with c-terminal …; assay: competitive TR-FRET (Eu-amivantamab/Cy5-c-MET), EC50 ratio vs Reference Material; Ex. 2 Formulation 1 (10 mM histidine), T0, 25 C table
Description: as §1, with “(Cy5)-labeled c-MET” for “(Cy5)-labeled EGFR”, “the Reference Material (RM).” for “the RM.”
as §2, with “c-MET Binding” for “EGFR Binding”, “commercial cMet,” for “commercial EGFR,”, “recombinant cMet/HGFR” for “recombinant human EGFR/ErbB1/HER1”, “with c-terminal His-tag” for “with C-terminal His tag”, “Cy5-labeled c-MET.” for “Cy5-labeled EGFR.”, “produce Eu labeled” for “produce Eu-labeled”

[6] = target: T2, recombinant cMet/HGFR with c-terminal …; assay: competitive TR-FRET (Eu-amivantamab/Cy5-c-MET), EC50 ratio vs Reference Material; Ex. 2 Formulation 2 (50 mM histidine), T0, 40 C table
Description: as §1, with “(Cy5)-labeled c-MET” for “(Cy5)-labeled EGFR”, “the Reference Material (RM).” for “the RM.”
as §2, with “c-MET Binding” for “EGFR Binding”, “commercial cMet,” for “commercial EGFR,”, “recombinant cMet/HGFR” for “recombinant human EGFR/ErbB1/HER1”, “with c-terminal His-tag” for “with C-terminal His tag”, “Cy5-labeled c-MET.” for “Cy5-labeled EGFR.”, “produce Eu labeled” for “produce Eu-labeled”

[7] = target: T1, recombinant human EGFR/ErbB1/HER1 with …; assay: competitive TR-FRET (Eu-amivantamab/Cy5-EGFR), EC50 ratio vs Reference Material; Ex. 2 Formulation 1 (10 mM histidine), 3 months at 40 C
Description: as §1, §2

[8] = target: T1, recombinant human EGFR/ErbB1/HER1 with …; assay: competitive TR-FRET (Eu-amivantamab/Cy5-EGFR), EC50 ratio vs Reference Material; Ex. 2 Formulation 2 (50 mM histidine), 3 months at 40 C
Description: as §1, §2

- EGFR Binding activity relative to Reference Material (%) [1]: 71%
- EGFR Binding activity relative to Reference Material (%) [2]: 57%
- cMET Binding % activity relative to RM [3]: 94%
- EGFR Binding % activity relative to RM [4]: 87%
- cMET Binding % activity relative to RM [5]: 87%
- cMET Binding % activity relative to RM [6]: 102%
- EGFR Binding % activity relative to RM [7]: 41%
- EGFR Binding % activity relative to RM [8]: 38%
B1: amivantamab (bispecific antibody, human IgG1, kappa)
heavy 1: not shown
light 1: not shown
heavy 2: not shown
light 2: DIQMTQSPSSVSASVGDRVTITCRASQGISNWLAWFQHKPGKAPKLLIYAASSLLSGVPSRFSGSGSGTDFTLTISSLQPEDFATYYCQQANSFPITFGQGTRLEIKRTVAAPSVFIFPPSDEQLKSGTASVVCLLNNFYPREAKVQWKVDNALQSGNSQESVTEQDSKDSTYSLSSTLTLSKADYEKHKVYACEVTHQGLSSPVTKSFNRGEC
notes: The samples tested were high concentration (160 mg/mL) formulations, fresh or stored or stressed; also called JNJ-61186372; bispecific EGFR-cMet antibody
